B1: H89/L16 (antibody, V domains shown)
VH: QVQLVESGGGLVQPGGSLRLSCAASGFTFSDYYLSWVRQAPGKGLEWVGLIRNKANGYTREYSASVKGRFTISRDDSKNSLYLQMSSLKTEDTAVYYCARENHRYDVELAYWGQGTLVTVSS
VL: DIQMTQSPSSLSASVGDRVTITCRASEIIYSYLAWYQQKPGKAPKLLIYNAKTHADGVPSRFSGSGSGTDFTFTISSLQPEDIATYYCQHHFGFPRTFGQGTKVEIKR
B2: Hr9/L16 (antibody, V domains shown)
VH: QVQLVESGGGLVQPGGSLRLSCAASGFTFSDYYLSWVRQAPGKGLEWVGLIRNKANGYTREYSASVKGRFTISRDDSKNSLYLQMSSLKTEDTAVYYCARENYRYDVELAYWGQGTLVTVSS
VL: DIQMTQSPSSLSASVGDRVTITCRASEIIYSYLAWYQQKPGKAPKLLIYNAKTHADGVPSRFSGSGSGTDFTFTISSLQPEDIATYYCQHHFGFPRTFGQGTKVEIKR
B3: H1009/L395 (antibody, V domains shown)
VH: QVQLVESGGGLVQPGGSLRLSCAASGFTFSDYYLSWVRQAPGKGLEWVGLIRNKDNYHTPEYSASVKGRFTISRDDSKNSLYLTMSDLKTEDTAVYYCARENHRYDVELAYWGQGTLVTVSS
VL: DIQMTQSPSSLSASVGDRVTITCRASEIIYSYLAWYQQKPGKAPKLLIYKAKTHADGVPSRFSGSGSGTDFTFTISSLQPEDIATYYCKHHFGFPRTFGQGTKVEIKR
B4: H89/L118 (antibody, V domains shown)
VH: QVQLVESGGGLVQPGGSLRLSCAASGFTFSDYYLSWVRQAPGKGLEWVGLIRNKANGYTREYSASVKGRFTISRDDSKNSLYLQMSSLKTEDTAVYYCARENHRYDVELAYWGQGTLVTVSS
VL: DIQMTQSPSSLSASVGDRVTITCRASEIIYSYLAWYQQKPGKAPKLLIYHAKTHADGVPSRFSGSGSGTDFTFTISSLQPEDIATYYCKHHFGFPRTFGQGTKVEIKR

Key:
human IL-8 [1] = target: human IL-8 (human); experiment: SPR, pH 7.4, 37C
human IL-8 [2] = target: human IL-8 (human); experiment: SPR, pH 5.8, 37C
human IL-8 [3] = target: human IL-8 (human); experiment: SPR, pH 7.4
human IL-8 [4] = target: human IL-8 (human); experiment: SPR, pH 5.8
human IL-8 [5] = target: human IL-8 (human); experiment: SPR, pH 7.4; remark: listed apart in the source
human IL-8 [6] = target: human IL-8 (human); experiment: SPR, pH 5.8; remark: listed apart in the source
human IL-8 [7] = target: human IL-8 (human); experiment: SPR, pH 5.8, 37C; remark: listed apart in the source

Sequence of human IL-8 (human) (chain, as listed by the source): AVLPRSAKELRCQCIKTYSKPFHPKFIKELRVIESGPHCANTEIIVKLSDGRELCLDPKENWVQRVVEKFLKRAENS

| Binder | Kd (human IL-8 [1]) | Kd (human IL-8 [2]) | Kd (human IL-8 [3]) | Kd (human IL-8 [4]) | Kd (human IL-8 [5]) | Kd (human IL-8 [6]) | Kd (human IL-8 [7]) |
| --- | --- | --- | --- | --- | --- | --- | --- |
| B1 | 0.699 nM | 35.1 nM | – | – | – | – | – |
| B2 | 0.108 nM | 5.04 nM | – | – | – | – | – |
| B3 | – | – | 0.071 nM | 87 nM | – | – | – |
| B4 | – | 21.5 nM | 0.17 nM | 49 nM | 0.172 nM | 48.8 nM | 31.8 nM |

Reference: US11780912 (dated 2023)
